Data: patent publication CN114317447A

Columns and labels:
[1] = molecular target: 磷酸二(2-乙基己基)酯蛋白偶联物 (di(2-ethylhexyl) phosphate coupled to bovine serum albumin) (bovine (牛)) (UniProt P02769); experiment: indirect ELISA, D-BSA coated on plate, antibody titrated, OD450
[2] = molecular target: 磷酸二(2-乙基己基)酯蛋白偶联物 (di(2-ethylhexyl) phosphate coupled to bovine serum albumin) (bovine (牛)) (UniProt P02769); experiment: indirect ELISA, D-BSA coated on plate, antibody titrated, OD450; unit from the x axis of Figure 1

Sequence of UniProt P02769 (P02769 25-607 limits assumed, form in doubt): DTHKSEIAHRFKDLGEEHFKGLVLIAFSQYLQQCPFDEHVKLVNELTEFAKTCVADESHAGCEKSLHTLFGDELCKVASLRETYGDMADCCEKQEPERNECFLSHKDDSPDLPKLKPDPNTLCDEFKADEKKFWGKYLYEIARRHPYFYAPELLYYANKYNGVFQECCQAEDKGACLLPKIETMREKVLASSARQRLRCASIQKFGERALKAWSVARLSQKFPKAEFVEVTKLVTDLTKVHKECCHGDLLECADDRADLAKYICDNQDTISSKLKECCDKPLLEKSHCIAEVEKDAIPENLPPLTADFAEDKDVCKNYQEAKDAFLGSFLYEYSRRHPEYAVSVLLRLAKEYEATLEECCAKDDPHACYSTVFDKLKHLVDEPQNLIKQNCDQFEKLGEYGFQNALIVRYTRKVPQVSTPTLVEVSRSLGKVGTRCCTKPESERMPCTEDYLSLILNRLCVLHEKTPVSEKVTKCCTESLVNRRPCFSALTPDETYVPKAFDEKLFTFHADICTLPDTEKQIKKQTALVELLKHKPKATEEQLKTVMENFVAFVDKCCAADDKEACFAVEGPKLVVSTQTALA

- A of the ELISA titer curve (lower asymptote, OD450) [1]: 0.203 OD450
- D of the ELISA titer curve (upper asymptote, OD450) [1]: 2.19 OD450
- C of the ELISA titer curve y=(A-D)/(1+(x/C)^B)+D (midpoint antibody concentration) [2]: 62.4 ng/mL
B1: 磷酸二(2-乙基己基)酯单克隆抗体 (monoclonal antibody against di(2-ethylhexyl) phosphate, secreted by hybridoma cell line 2D5, CCTCC NO: C2021136) (antibody, V domains shown)
VH: QVQLQQSGAELVRPGSSVKISCKASGYAFSSYWMNWVKQRPGQGLEWIGQIYPGDGDTNYNGKFKGKATLTADKSSSTAYMQLSSLTSEDSAVYFCARSDYPWFVYWGQGTLVTVSA
VL: QIVLTQSPAIMSASPGEKVTISCSASSSVSYMYWYQQKPGSSPKPWIYRTSNLASGVPARFSGSGSGTSYSLTISSMEAEDAATYYCQQYHSYPWTFGGGTKLEIK
